From PMC8860590, “Identification, functional characterization, assembly and structure of ToxIN type III toxin–antitoxin complex from E. coli”

Key:
ToxN (ToxNEc) [1] = target: T1, ToxN (ToxNEc) (Escherichia coli strain 680, UniProt PDB:7D8O_1 1-187); assay: ITC; one-site fit; ITC: 50 mM KH2PO4 pH 7, 100 mM KCl, 15°C; 2-5 uM RNA in cell, 35-50 uM ToxN in syringe; details: protein: recombinant, tags: N-terminal His6 (pCold II)
ToxN (ToxNEc) [2] = target: T1, ToxN (ToxNEc); assay: ITC; no appreciable heat change; ITC: 50 mM KH2PO4 pH 7, 100 mM KCl, 15°C; 2-5 uM RNA in cell, 35-50 uM ToxN in syringe; details: protein: recombinant; tags: N-terminal His6 (pCold II); pseudoknot

GGAUUCAGGUGAUUUGCUACCUUUAAGUGCA (structured_RNA) [Δ3'-ToxI] was tested, and the Kd (ToxN (ToxNEc) [1]; pseudoknot with 5' single-stranded overhang) was 243 ± 55 nM.

GGAGGUGAUUUGCUACCUUUAAGUGCA (structured_RNA) [27mer (core pseudoknot)]: no binding (ToxN (ToxNEc) [2]).

Binder GGAGGUGAUUUGCUACCUUUAAGUGCAGCUAGAA (structured_RNA) [Δ5'-ToxI] has a Kd (ToxN (ToxNEc) [1]; pseudoknot with 3' single-stranded overhang) of 47.3 ± 7.4 nM.
